Assay [1] deals with T1, rhBCMA-Fc Chimera (R&D Systems 193-BC-050) (human, Disulfide-linked homodimer (the 25th table, row 5); one copy of the chain is given.).
T1 construct: Disulfide-linked dimer, bought; also called immobilized BCMA
Description: BLI full kinetics; rhBCMA-Fc captured on AHC sensor; analyte 1.56-50 nM; bivalent (avidity).

In assay [2] the target is T2, Human CD3ε&CD3δ heterodimeric Fc Chimera (ACRO Biosystems CDD-H52W0) (human, UniProt P07766 22-126, Disulfide-linked heterodimer through the Fc parts that are left off.).
T2 construct: Disulfide-linked heterodimer, bought; also called rhCD3ε/δ-Fc; rhCD3ε/CD3δ-Fc
T2 sequence (P07766 22-126 limits assumed, stated change not applied, chain 1 of 2): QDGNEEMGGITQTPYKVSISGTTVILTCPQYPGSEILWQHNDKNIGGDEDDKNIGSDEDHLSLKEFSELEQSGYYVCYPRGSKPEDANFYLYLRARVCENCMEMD
T2 sequence (delta, as listed by the source mutant limits assumed, chain 2 of 2): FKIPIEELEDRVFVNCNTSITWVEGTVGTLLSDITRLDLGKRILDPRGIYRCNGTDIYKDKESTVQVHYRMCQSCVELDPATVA
As to the kind of experiment: BLI (Octet) scouting; rhCD3ε/δ-Fc captured on AHC sensor; analyte 2000 nM; 1:1 local fit.

In assay [3] the target is T1, rhBCMA-Fc Chimera (R&D Systems …). Description: BLI (Octet) scouting; rhBCMA-Fc captured on AHC sensor; analyte 100 nM; 1:1 local fit. A general note: In BLI a coated tip is dipped into the sample, and binding shifts an interference pattern.
Assay [4] has as its target T2, Human CD3ε&CD3δ heterodimeric Fc …. As to the kind of experiment: BLI full kinetics; rhCD3ε/δ-Fc captured on AHC sensor; analyte 15.6-125 nM; monovalent (affinity).
The target in a further assay is T3, CD3 on (CD3+) T cells (human, UniProt P07766 23-207; P09693 23-182; P04234 22-171; P20963 22-164).
T3 construct: whole, on cells; also called CD3 protein multi-subunit complex
T3 sequence (P07766 23-207, form in doubt, chain 1 of 4): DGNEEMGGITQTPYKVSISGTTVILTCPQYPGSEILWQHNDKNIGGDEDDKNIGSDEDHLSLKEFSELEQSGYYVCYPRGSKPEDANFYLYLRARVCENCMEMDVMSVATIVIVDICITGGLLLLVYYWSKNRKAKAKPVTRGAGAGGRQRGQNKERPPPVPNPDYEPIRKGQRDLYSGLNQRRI
T3 sequence (P09693 23-182, form in doubt, chain 2 of 4): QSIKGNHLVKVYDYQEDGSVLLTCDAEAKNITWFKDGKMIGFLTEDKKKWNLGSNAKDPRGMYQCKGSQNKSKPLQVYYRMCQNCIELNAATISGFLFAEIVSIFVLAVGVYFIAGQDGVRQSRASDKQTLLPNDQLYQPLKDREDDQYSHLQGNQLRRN
T3 sequence (P04234 22-171, form in doubt, chain 3 of 4): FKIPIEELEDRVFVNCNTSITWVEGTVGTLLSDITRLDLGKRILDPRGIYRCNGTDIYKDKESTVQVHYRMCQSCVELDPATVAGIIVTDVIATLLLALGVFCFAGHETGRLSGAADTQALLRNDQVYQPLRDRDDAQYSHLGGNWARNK
T3 sequence (P20963 22-164, form in doubt, chain 4 of 4): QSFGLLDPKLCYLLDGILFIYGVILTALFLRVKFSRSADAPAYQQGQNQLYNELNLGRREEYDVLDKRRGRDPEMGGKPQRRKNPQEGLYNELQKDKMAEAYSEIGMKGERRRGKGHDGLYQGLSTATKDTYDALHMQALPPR
Description: flow cytometry; 10 µg/mL scFv on 50,000 CD3+ T cells; anti-FLAG FITC detection.

The values that follow come from patent publication US20240344030A1 (CARTESIAN THERAPEUTICS, published 2024).

The koff is a measure of how fast the partners let go of each other. For orientation: kon means the second-order rate constant of association. Read a low kon as slow association.

T1 sequence (chain, as listed by the source mutant limits assumed): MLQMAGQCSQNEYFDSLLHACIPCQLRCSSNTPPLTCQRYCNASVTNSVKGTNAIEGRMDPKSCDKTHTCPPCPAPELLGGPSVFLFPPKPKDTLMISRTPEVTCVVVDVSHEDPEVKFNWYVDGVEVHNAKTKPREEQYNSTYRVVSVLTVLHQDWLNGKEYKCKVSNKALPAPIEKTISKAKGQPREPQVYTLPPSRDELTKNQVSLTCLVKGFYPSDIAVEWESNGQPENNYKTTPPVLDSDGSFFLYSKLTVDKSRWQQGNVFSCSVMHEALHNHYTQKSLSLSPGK

B1: bispecific antibody of SEQ ID NO: 138 (with a C-terminal Myc-Flag tag of SEQ ID NO: 141) (bispecific antibody)
chain: DIVLTQSPASLAVSPGQRATISCRASESVSFLGINLIHWYQQKPGQPPKLLIYLASNLETGVPARFSGSGSGTDFTLTISSVEPEDTANYYCLQSRTLPRTFGQGTKVEIKGSTSGSGKPGSGEGSTKGQIQLVQSGPELKKPGGSVKISCKASGYTFTSYSINWVRQAPGKGLEWVGWINTETREPAYAQGFTGRFTFSADTSKSMAYLQINSLRAEDTAVYYCALDYLYSLDFWGQGTLVTVSSGGGGSQVQLVQSGAEVKKPGASVKVSCKASGYTFTRYTMHWVRQAPGQGLEWIGYINPSKGYTNYNQKFKGRVTMTADKSTSTAYMELSSLRSEDTAVYYCARYYDDHYSLDYWGQGTLVTVSSGGGGSGGGGSGGGGSGGGGSEIVMTQSPATLSLSPGERVTLSCRASSSVSYMNWYQQKSGTSPKRWIYDTSKVASGVPYRFSGSGSGTDFTLTISSLQAEDEATYYCQQWSSNPLTFGQGTKLEIKSSGGSGGSGGSGGSGGSGGSGGSGGSGGSGSDIVLTQSPASLAVSPGQRATISCRASESVSFLGINLIHWYQQKPGQPPKLLIYLASNLETGVPARFSGSGSGTDFTLTISSVEPEDTANYYCLQSRTLPRTFGQGTKVEIKGSTSGSGKPGSGEGSTKGQIQLVQSGPELKKPGGSVKISCKASGYTFTSYSINWVRQAPGKGLEWVGWINTETREPAYAQGFTGRFTFSADTSKSMAYLQINSLRAEDTAVYYCALDYLYSLDFWGQGTLVTVSSGGSLEQKLISEEDLAANDILDYKDDDDKV
notes: Single chain: anti-BCMA scFv, anti-CD3 scFv, anti-BCMA scFv; also called DC10xP15-MycDDK; DC10xP15
Consider B1, for which the Kd in assay [1] was less than 0.001 nM; in assay [2], 9.76 nM; in assay [3] it was 0.116 nM; in assay [4], 3.02 nM. Moreover, the off-rate (koff) in assay [1] is less than 1e-07 s⁻¹; in assay [4], 0.00199 s⁻¹. Besides, the kon in assay [1] stood at 226000 M⁻¹ s⁻¹; in assay [4], 660000 M⁻¹ s⁻¹.

B2: Vulcanodon-C1 anti-CD3 scFv (SEQ ID NO: 7), FLAG and His-tagged version (scFv)
scFv: QVQLQQSGAELARPGASVKMSCKTSGYTFTGYYMHWVKQRPGQGLEWIGYINPSRGYTNYNQKFKDKATLTTDKSSSTAYMQLSSLTSEDSAVYYCARYYDDHYSLDYWGQGTTLTVSSGGGGSGGGGSGGGGSGGGGSQIVLTQSPAIMSASPGEKVTMTCRASQSISSYLNWYQQKSGTSPKRWIYDTSKVASGVPYRFSGSGSGTSYSLTISSMEAEDAATYYCQQWSSNPLTFGAGTKLELK
notes: also called Var CDR1; not shown: FLAG and His tags
With B2, in the assay with CD3 on (CD3+) T cells, the “CD3 Binding (increase in MFI)” value is roughly 0 MFI.

B3: Vulcanodon-C2 anti-CD3 scFv (SEQ ID NO: 8), FLAG and His-tagged version (scFv)
scFv: QVQLQQSGAELARPGASVKMSCKTSGYTFTRYTMHWVKQRPGQGLEWMGIINPSGGSTSYAQKFKDKATLTTDKSSSTAYMQLSSLTSEDSAVYYCARYYDDHYSLDYWGQGTTLTVSSGGGGSGGGGSGGGGSGGGGSQIVLTQSPAIMSASPGEKVTMTCRASSSVSYMNWYQQKSGQAPRLLIYGASTRATGIPYRFSGSGSGTSYSLTISSMEAEDAATYYCQQWSSNPLTFGAGTKLELK
notes: also called Var CDR2; not shown: FLAG and His tags
In the case of B3, in the assay with CD3 on (CD3+) T cells, the “CD3 Binding (increase in MFI)” value was roughly 0 MFI.

B4: Vulcanodon-3 anti-CD3 scFv (SEQ ID NO: 4), FLAG and His-tagged version (scFv)
scFv: QVQLVQSGAEVKKLGASVKVSCKASGYTFTRYTMHWVKQAPGQGLEWIGYINPSRGYTNYNQKFQGRVTMTRDTSISTAYMELSRLRSDDTAVYYCARYYDDHYSLDYWGQGTLVTVSSGGGGSGGGGSGGGGSGGGGSDIQMTQSPSSLSASVGDRVTITCRASSSVSYMNWYQQKSGTSPKRWIYDTSKVASGVPYRFSGSGSGTDFTLTISSLQPEDFATYYCQQWSSNPLTFGAGTKLEIK
notes: also called Var 3; not shown: FLAG and His tags
Turning to B4, the “CD3 Binding (increase in MFI)” value with CD3 on (CD3+) T cells came out at 24 MFI.

B5: Vulcanodon-1 anti-CD3 scFv (SEQ ID NO: 2), FLAG and His-tagged version (scFv)
scFv: QVQLVQSGAEVKKPGASVKVSCKASGYTFTRYTMHWVRQAPGQGLEWIGYINPSKGYTNYNQKFKGRVTMTADKSTSTAYMELSSLRSEDTAVYYCARYYDDHYSLDYWGQGTLVTVSSGGGGSGGGGSGGGGSGGGGSEIVMTQSPATLSLSPGERVTLSCRASSSVSYMNWYQQKSGTSPKRWIYDTSKVASGVPYRFSGSGSGTDFTLTISSLQAEDEATYYCQQWSSNPLTFGQGTKLEIK
notes: also called Var 1; not shown: FLAG and His tags
With B5, the “CD3 Binding (increase in MFI)” value with CD3 on (CD3+) T cells was 20 MFI.

B6: Vulcanodon-2 anti-CD3 scFv (SEQ ID NO: 3), FLAG and His-tagged version (scFv)
scFv: QVQLVQSGAEVKKPGASVKVSCKASGYTFTRYTMHWVRQAPGQGLEWIGYINPSRGYTNYNQKFKGRVTMTADKSTSTAYMELSSLRSEDTAVYYCARYYDDHYSLDYWGQGTTVTVSSGGGGSGGGGSGGGGSGGGGSEIVMTQSPATLSLSPGERVTLSCRASSSVSYMNWYQQKSGTSPKRWIYDTSKVASGVPYRFSGSGSGTDFTLTISSLQAEDEATYYCQQWSSNPLTFGAGTKLEIK
notes: also called Var 2; not shown: FLAG and His tags
B6: the “CD3 Binding (increase in MFI)” value in the assay with CD3 on (CD3+) T cells turned out to be 24 MFI.

B7: Vulcanodon-4 anti-CD3 scFv (SEQ ID NO: 5), FLAG and His-tagged version (scFv)
scFv: QVQLVQSGAEVKKPGASVKVSCKASGYTFTRYTMHWVKQRPGQGLEWIGYINPSKGYTNYNQKFKGRVTMTADKSTSTAYMELSSLRSEDTAVYYCARYYDDHYSLDYWGQGTLVTVSSGGGGSGGGGSGGGGSGGGGSQIVLTQSPAIMSASPGEKVTMTCRASSSVSYMNWYQQKSGTSPKRWIYDTSKVASGVPYRFSGSGSGTDFTLTISSLQAEDEATYYCQQWSSNPLTFGQGTKLEIK
notes: also called Var 4; not shown: FLAG and His tags
For the molecule B7, the “CD3 Binding (increase in MFI)” value in the assay with CD3 on (CD3+) T cells is 27 MFI.
